Measured values as given in article PMC9320808.

Experiments:
[1] = biological target: PD-L1-6His-tag (Programmed cell Death Ligand 1) of the Cisbio Human PD1/PD-L1 biochemical binding assay (human) (UniProt Q9NZQ7); test: AlphaScreen or HTRF
[2] = biological target: human PD-L1 expressed on CHO-K1 cells (CHO-K1 hPD-L1) (human) (UniProt Q9NZQ7); test: radioligand binding
Chain of human PD-L1 expressed on CHO-K1 cells (CHO-K1 hPD-L1) (human) (Q9NZQ7 19-290): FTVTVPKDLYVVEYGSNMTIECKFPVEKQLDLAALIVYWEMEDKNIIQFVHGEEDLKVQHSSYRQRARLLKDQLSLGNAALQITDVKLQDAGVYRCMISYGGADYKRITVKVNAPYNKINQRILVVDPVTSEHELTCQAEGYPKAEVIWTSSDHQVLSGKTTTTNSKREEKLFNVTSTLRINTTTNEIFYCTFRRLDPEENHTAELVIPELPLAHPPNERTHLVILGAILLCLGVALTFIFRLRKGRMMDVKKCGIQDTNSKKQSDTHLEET

Chain of PD-L1-6His-tag (Programmed cell Death Ligand 1) of the Cisbio Human PD1/PD-L1 biochemical binding assay (human) (Q9NZQ7 19-238): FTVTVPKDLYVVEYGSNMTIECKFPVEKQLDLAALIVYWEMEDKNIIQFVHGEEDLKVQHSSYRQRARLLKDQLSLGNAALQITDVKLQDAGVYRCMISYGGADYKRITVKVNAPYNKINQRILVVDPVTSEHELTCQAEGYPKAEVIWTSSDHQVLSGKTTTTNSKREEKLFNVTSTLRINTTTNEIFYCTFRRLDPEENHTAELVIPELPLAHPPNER

Substance	IC50 [1]	cell internalization %AD/10^6 cells (90 min) (%AD/10^6 cells) [2]	membrane bound %AD/10^6 cells (90 min) (%AD/10^6 cells) [2]
NJMP1 (BMS78 C-terminally conjugated to Lys(DOTA)NH2) (peptide)	242 nM	–	–
[68Ga]Ga-WL12 (WL12 with DOTAGA on Orn13, loaded with 68Ga) (peptide)	–	19.2	18.2
natGa-NJMP1 (peptide)	25900 nM	–	–
natGa-WL12 (WL12 with DOTAGA on Orn13, loaded with natGa) (peptide)	12.4 nM	–	–
BMS78, 14-mer macrocyclic peptide	133 nM	–	–
[68Ga]Ga-NJMP1 (peptide)	–	1.68	0.36
